Assay results as given in patent US20140336126A1.

Biological target: GS-TAP-tagged Optn (human) (UniProt Q96CV9)
Test: TAP of GS-tagged Optn from HEK-293 cells, LC-MSMS

Sequence of GS-TAP-tagged Optn (human) (Q96CV9 whole entry E322K): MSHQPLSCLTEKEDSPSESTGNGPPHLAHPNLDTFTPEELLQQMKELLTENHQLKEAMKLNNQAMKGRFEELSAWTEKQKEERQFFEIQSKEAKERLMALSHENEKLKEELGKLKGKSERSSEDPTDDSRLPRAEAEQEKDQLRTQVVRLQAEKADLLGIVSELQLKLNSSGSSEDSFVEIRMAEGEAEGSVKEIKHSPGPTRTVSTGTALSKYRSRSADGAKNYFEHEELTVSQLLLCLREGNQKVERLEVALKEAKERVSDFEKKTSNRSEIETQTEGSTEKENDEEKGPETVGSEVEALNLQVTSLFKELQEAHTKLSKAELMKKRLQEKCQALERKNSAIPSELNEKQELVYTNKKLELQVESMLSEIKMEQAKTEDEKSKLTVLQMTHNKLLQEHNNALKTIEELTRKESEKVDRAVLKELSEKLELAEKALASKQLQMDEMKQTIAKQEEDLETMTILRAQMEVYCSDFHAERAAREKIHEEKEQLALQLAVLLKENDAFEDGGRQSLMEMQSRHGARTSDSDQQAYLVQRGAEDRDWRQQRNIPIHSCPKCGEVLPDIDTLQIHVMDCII
Sequence of [..] LIGHT CHAIN 2, [..]. (Q96FJ2 whole entry): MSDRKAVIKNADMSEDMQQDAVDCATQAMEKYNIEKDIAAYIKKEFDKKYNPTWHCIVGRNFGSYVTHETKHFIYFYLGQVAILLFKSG
Sequence of MYOSIN, LIGHT CHAIN 6, ALKALI, SMOOTH MUSCLE AND NON-MUSCLE ISOFORM 1. (P60660 2-151): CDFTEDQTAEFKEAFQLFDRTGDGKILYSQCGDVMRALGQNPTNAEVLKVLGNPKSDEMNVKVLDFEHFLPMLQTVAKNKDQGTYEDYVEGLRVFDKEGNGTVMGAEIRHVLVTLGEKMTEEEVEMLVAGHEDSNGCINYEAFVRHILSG

| Substance | sequence coverage | unique peptide counts |
| --- | --- | --- |
| DYNEIN LIGHT CHAIN 1, CYTOPLASMIC. (from UniProt P63167 1-89) | 0.64 | 5 |
| GUANINE NUCLEOTIDE-BINDING PROTEIN G. (from UniProt P08754 2-354) | 0.19 | 6 |
| PRKC APOPTOSIS WT1 REGULATOR PROTEIN. (from UniProt Q96IZ0 1-340) | 0.09 | 2 |
| ISOFORM 1 OF HEAT SHOCK COGNATE 71 KDA PROTEIN. (from UniProt P11142 2-646) | 0.24 | 14 |
| ISOFORM 1 OF MYOSIN IB. (from UniProt O43795 1-1136) | 0.03 | 3 |
| ALPHA-ACTININ-4. (from UniProt O43707 1-911) | 0.02 | 2 |
| DESMOGLEIN 2 PREPROPROTEIN. (from UniProt Q14126 50-1118) | 0.02 | 2 |
| TROPOMYOSIN 1 ALPHA CHAIN ISOFORM 7. (from UniProt P09493 1-284) | 0.19 | 5 |
| ISOFORM 1 OF MYOSIN PHOSPHATASE RHO-… PROTEIN. (from UniProt Q6WCQ1 2-1025) | 0.21 | 17 |
| PEROX1REDOXIN-1. (from UniProt Q06830 2-199) (enzyme) | 0.11 | 2 |
| ISOFORM 2 OF ANKYCORBIN. (from UniProt Q9P0K7 1-983) | 0.12 | 11 |
| ELONGATION FACTOR 1-ALPHA 2. (from UniProt Q05639 2-463) | 0.06 | 3 |
| MYOSIN REGULATORY LIGHT CHAIN. (from UniProt O14950 2-172) | 0.19 | 3 |
| STRESS-70 PROTEIN, MITOCHONDRIAL PRECURSOR. (from UniProt P38646 47-679) | 0.09 | 5 |

The remaining lines, values ahead:

| sequence coverage | unique peptide counts | Substance |
| --- | --- | --- |
| 0.25 | 13 | CORONIN-1C. (from UniProt Q9ULV4 1-474) |
| 0.03 | 7 | 285 KDA PROTEIN. (from UniProt Q13813 1-2472) |
| 0.25 | 17 | HEAT SHOCK 70 KDA PROTEIN 1. (from UniProt P0DMV9 2-641) |
| 0.2 | 6 | type 1 protein phosphatase catalytic subunit PP1β (from UniProt P62140 1-327) (enzyme) |
| 0.06 | 2 | GUANINE NUCLEOTIDE-BINDING PROTEIN G(I)/G(S)/G(T) SUBUNIT BETA 2. (from UniProt P62879 2-340) |
| 0.16 | 3 | RAS-RELATED PROTEIN RAB-35. (from UniProt Q15286 1-201) |
| 0.12 | 7 | HEAT SHOCK 70 KDA PROTEIN 1L. (from UniProt P34931 1-641) |
| 0.64 | 5 | [..] LIGHT CHAIN 2, [..]. (from UniProt Q96FJ2 1-89) |
| 0.11 | 2 | ISOFORM SNAP-23A OF SYNAPTOSOMAL-ASSOCIATED PROTEIN 23. (from UniProt O00161 1-211) |
| 0.06 | 10 | MYOSIN-9. (from UniProt P35579 2-1960) |
| 0.04 | 7 | ISOFORM 1 OF MYOSIN-10. (from UniProt P35580 1-1976) |
| 0.05 | 10 | FILAMIN 1. (from UniProt P21333 2-2647) |
| 0.01 | 2 | ISOFORM LONG OF SPECTRIN BETA CHAIN, BRAIN 1. (from UniProt Q01082 2-2364) |
| 0.28 | 5 | MYOSIN, LIGHT CHAIN 6, ALKALI, SMOOTH MUSCLE AND NON-MUSCLE ISOFORM 1. |
| 0.18 | 6 | TROPOMYOSIN 4. (from UniProt P67936 2-248) |
| 0.22 | 5 | COMPLEMENT COMPONENT 1 Q SUBCOMPONENT-BINDING PROTEIN, MITOCHONDRIAL PRECURSOR. (from UniProt Q07021 74-282) |
| 0.12 | 8 | HEAT SHOCK 70 KDA PROTEIN 6. (from UniProt P17066 1-643) |
| 0.15 | 5 | GALPHAI2 PROTEIN. (from UniProt P04899 2-355) |
